This assay has as its target T1, myc-tagged mouse separase, wild-type (WT) (mouse, UniProt P60330 1-2118).
T1 construct: Studied in HeLa cell extracts by co-immunoprecipitation and immunoblot; also called wild-type separase; wild-type mouse separase; not shown: myc tag
In words: immunoprecipitation with securin from anaphase cell extract, immunoblot for separase-myc (FIG. 7A). How it is done: Typically, the cell extracts are mixed with […] of agarose beads conjugated to anti-myc tag (manufactured by MBL), or protein A beads (manufactured by Bio-RAD) coupled to the desired antibodies, and incubated for 2 hr at 4° C., then washed three times with IP buffer and three times with TBS-T (150 mM sodium chloride, 20 mM Tris pH 8.0, 0.05% (v/v) Tween 20) and then subjected to analysis.
In the wild-type mouse separase replaced cell and SA mutant mouse separase replaced cell, the cell cycle arrest by Monastrol, was cancelled. Forty minutes after cancellation of the cell cycle arrest by Monastrol a cell population enriched in anaphase cells was prepared. Then, a cell extract was obtained and subjected to immunoprecipitation with cyclin B1 and securin to analyze the presence or absence of separase-myc. As a result, separase having a small molecular weight, i.e., cleaved separase, is observed.
(In general: In western blotting, separated proteins are transferred to a membrane and probed.)

T1 sequence (P60330 whole entry): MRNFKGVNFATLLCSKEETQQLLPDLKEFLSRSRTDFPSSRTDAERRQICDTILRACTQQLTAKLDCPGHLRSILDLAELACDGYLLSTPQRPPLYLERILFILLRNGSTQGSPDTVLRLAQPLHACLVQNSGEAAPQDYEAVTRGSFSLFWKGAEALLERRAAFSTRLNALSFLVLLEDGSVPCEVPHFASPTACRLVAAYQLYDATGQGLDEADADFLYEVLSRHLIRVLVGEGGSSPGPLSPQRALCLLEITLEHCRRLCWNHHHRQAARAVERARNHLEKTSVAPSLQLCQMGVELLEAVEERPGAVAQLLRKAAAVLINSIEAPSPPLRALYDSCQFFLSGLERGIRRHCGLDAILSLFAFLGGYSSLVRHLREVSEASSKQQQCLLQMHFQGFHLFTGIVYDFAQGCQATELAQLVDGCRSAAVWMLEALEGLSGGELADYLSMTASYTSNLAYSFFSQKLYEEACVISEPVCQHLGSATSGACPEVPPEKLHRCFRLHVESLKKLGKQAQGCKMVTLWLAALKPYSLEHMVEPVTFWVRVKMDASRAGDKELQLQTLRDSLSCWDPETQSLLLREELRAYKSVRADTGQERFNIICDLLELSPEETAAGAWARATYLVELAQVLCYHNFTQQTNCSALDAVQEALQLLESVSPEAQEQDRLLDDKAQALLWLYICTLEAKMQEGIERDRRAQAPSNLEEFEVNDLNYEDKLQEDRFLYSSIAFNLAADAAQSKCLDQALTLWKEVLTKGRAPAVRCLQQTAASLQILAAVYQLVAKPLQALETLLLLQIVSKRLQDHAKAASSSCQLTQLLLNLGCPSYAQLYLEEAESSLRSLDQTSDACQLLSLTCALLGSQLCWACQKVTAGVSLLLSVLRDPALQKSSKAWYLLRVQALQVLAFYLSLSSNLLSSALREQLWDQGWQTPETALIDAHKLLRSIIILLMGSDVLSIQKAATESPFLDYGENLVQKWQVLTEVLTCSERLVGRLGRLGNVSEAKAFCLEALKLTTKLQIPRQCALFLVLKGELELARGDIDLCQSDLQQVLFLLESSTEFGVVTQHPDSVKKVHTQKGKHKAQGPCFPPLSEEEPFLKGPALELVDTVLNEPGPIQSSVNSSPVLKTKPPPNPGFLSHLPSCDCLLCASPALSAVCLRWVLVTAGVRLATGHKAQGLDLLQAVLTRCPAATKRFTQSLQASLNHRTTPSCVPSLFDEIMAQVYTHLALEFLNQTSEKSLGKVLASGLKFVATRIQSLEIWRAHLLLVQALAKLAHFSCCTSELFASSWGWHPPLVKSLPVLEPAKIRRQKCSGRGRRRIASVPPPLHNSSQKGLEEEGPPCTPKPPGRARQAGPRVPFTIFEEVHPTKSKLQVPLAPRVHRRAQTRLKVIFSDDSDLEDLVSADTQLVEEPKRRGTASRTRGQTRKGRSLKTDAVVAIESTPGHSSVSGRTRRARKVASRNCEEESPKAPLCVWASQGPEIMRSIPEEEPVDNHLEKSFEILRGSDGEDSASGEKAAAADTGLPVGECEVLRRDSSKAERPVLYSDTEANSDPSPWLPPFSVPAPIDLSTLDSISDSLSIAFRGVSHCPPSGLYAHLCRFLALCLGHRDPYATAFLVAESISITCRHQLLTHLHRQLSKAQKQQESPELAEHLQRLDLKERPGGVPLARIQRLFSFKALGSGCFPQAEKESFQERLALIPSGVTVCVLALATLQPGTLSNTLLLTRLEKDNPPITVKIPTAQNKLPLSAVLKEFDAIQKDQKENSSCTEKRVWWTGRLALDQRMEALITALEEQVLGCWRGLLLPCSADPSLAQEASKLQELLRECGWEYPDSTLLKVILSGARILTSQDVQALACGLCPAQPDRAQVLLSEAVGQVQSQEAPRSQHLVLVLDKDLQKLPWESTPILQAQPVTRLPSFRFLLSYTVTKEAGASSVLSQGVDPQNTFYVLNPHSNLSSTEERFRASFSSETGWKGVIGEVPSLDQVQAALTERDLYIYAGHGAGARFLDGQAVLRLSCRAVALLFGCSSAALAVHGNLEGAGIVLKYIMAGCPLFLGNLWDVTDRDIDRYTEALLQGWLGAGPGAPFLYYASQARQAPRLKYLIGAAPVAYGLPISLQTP

B1: securin (other, UniProt O95997 2-202, looked up)
chain: ATLIYVDKENGEPGTRVVAKDGLKLGSGPSIKALDGRSQVSTPRFGKTFDAPPALPKATRKALGTVNRATEKSVKTKGPLKQKQPSFSAKKMTEKTVKAKSSVPASDDAYPEIEKFFPFNPLDFESFDLPEEHQIAHLPLSGVPLMILDEERELEKLFQLGPPSPVKMPSPPWESNLLQSPSSILSTLDVELPPVCCDIDI
notes: Endogenous protein in HeLa cell extracts
In the case of B1, the binding result is “binds”.

The values are drawn from US10174359 (JAPANESE FOUNDATION FOR CANCER RESEARCH, dated 2019).
